Experimental data reported in patent US20250277030A1, “ANTI-NAPI2B ANTIBODIES AND METHODS OF USE” (Zymeworks BC Inc., priority 2022, published 2025).

Tests used:
mouse NaPi2b = molecular target: T1, mouse NaPi2b (Mus musculus, UniProt Q9DBP0); assay: Flow cytometry binding to HEK293-6e cells transfected with mouse NaPi2b (Example 5); settings: transfected HEK293-6e cells
T1 construct: expressed in transfected cells; host or cells: HEK293-6e
T1 sequence (Q9DBP0 1-697): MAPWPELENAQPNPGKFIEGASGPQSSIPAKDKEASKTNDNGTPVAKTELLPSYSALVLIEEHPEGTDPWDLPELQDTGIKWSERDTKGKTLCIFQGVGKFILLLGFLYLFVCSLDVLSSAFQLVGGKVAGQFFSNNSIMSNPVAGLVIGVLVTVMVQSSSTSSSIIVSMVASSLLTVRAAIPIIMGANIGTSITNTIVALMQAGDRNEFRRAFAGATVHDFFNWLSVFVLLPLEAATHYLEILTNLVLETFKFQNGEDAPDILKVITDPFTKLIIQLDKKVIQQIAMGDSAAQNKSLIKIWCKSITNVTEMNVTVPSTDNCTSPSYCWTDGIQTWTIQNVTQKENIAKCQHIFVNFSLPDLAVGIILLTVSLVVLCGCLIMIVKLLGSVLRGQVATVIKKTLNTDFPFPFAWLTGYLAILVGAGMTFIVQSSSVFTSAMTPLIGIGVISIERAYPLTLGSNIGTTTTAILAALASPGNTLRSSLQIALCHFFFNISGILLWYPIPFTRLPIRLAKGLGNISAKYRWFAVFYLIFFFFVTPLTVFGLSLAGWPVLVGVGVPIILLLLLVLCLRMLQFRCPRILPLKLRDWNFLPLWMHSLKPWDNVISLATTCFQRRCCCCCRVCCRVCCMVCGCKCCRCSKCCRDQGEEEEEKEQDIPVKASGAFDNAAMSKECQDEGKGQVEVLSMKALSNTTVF
Method: The binding cross-reactivity of humanized antibody variant v29456 to human, cynomolgus and mouse NaPi2b was assessed by flow cytometry using HEK293-6e transfected cells.
Briefly, HEK293-6e cells were transfected for ˜24 hours to transiently express human NaPi2b, cynomolgus or mouse NaPi2b, at 1 μg of DNA per 1 million cells. Following transfection, 50,000 cells per well were seeded in V-bottom 96-well plates and incubated with 200 nM of primary antibody for 18-24 hours at 4° C. to prevent internalization. Post-incubation, cells were washed and stained with anti-Human IgG Fc AF647 conjugate (Jackson Immuno Research Labs, West Grove, PA, Cat. No. 109-605-098, Lot. No. 124868) at 4° C. for 1 hour. Following staining and washing, fluorescence was detected by flow cytometry on BD LSRFortessa™ Cell Analyzer (BD Biosciences, Franklin Lake, NJ) with 10,000 minimum events collected per well. The AF647/APC-A GeoMean (fluorescence signal geometric mean, proportional to anti-Human AF647 binding) was calculated for the live singlet cell population for each primary antibody using FlowJo™ v8 software (BD Biosciences, Franklin Lake, NJ). The Bmax and Kd of each primary antibody were calculated using GraphPad Prism Version 9 (GraphPad Software, San Diego, CA)

[1] = molecular target: T2, NaPi2b expressed on IGROV-1 cells (Homo sapiens, UniProt O95436); assay: Cellular binding to IGROV-1 cells by flow cytometry (Example 19); settings: NB = no binding (apparent Kd >150 nM)
T2 construct: IGROV-1 cells express endogenous NaPi2b at a high level; endogenous in cells; host or cells: IGROV-1
T2 sequence (O95436 1-690): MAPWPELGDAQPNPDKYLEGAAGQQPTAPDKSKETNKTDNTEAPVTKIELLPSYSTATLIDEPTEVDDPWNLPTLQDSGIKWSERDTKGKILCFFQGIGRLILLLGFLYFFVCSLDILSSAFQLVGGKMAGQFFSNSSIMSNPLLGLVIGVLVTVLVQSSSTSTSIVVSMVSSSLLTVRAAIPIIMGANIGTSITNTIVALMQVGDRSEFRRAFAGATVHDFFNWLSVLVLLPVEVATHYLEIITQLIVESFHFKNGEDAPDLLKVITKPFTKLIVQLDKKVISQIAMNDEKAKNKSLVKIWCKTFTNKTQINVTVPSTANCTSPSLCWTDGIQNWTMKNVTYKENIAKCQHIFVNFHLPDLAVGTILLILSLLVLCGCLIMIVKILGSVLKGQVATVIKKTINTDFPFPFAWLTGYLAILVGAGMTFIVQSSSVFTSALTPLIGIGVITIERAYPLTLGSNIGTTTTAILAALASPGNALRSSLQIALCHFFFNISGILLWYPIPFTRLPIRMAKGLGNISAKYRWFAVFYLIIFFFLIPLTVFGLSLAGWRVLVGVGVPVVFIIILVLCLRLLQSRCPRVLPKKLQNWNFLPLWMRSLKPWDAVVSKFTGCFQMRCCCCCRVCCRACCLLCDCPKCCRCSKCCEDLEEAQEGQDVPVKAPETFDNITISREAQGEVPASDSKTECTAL
Method: Briefly, cells were seeded at 50,000 cells/well in conical-bottom 96-well plates and treated with test antibody for 24 hours at 4° C. to prevent internalization. Palivizumab (anti-RSV antibody, v22277) was included as a negative control. […] Following incubation, cells were washed and stained with anti-Human IgG Fc AF647 conjugate (Jackson Immuno Research Labs, West Grove, PA; Cat. No. 109-605-098) at 4° C. for 30 min. Following incubation and washing, fluorescence was detected by flow cytometry on a BD LSRFortessa™ Cell Analyzer (BD Biosciences, Franklin Lake, NJ) with 1,000 minimum events collected per well. The AF647/APC-A GeoMean (fluorescence signal geometric mean, proportional to anti-Human AF647 binding) was calculated for the live cell population using FlowJo™ Version 10.8.1 (BD Biosciences, Franklin Lake, NJ) and plotted for each test antibody using GraphPad Prism Version 9 (GraphPad Software, San Diego, CA).
The ability of the humanized antibody variants v38591 and v29456 to bind to NaPi2b expressed on cells was assessed on endogenous NaPi2b-expressing tumor cell lines IGROV-1 (ovarian adenocarcinoma) and TOV-21G (ovarian carcinoma) by flow cytometry. IGROV-1 and TOV-21G cells express endogenous NaPi2b at high and moderate levels, respectively, as described in Example 10.
Cellular binding was performed according to methods described in Example 13.

v22277: anti-RSV antibody palivizumab, negative control; has a heterodimeric Fc [reference compound]
Binding to mouse NaPi2b, in words (mouse NaPi2b): did not bind
Kd [1]: > 150 nM
